Test: label from the status in PepcDB records

MKRSSLLVRMVISIFLVFLILLALVGTFYYQSSSSAIEATIEGNSQTTISQTSHFIQSYIKKLETTSTGLTQQTDVLAYAENPSQDKVEGIRDLFLTILKSDKDLKTVVLVTKSGQVISTDDSVQMKTSSDMMAEDWYQKAIHQGAMPVLTPARKSDSQWVISVTQELVDAKGANLGVLRLDISYETLEAYLNQLQLGQQGFAFIINENHEFVYHPQHTVYSSSSKMEAMKPYIDTGQGYTPGHKSYVSQEKIAGTDWTVLGVSSLEKLDQVRSQLLWTLLGASVTSLLVCLCLVWFSLKRWIAPLKDLRETMLEIASGAQNLRAKEVGAYELREVTRQFNAMLDQIDQLMVAIRSQEETTRQYQLQALSSQINPHFLYNTLDTIIWMAEFHDSQRVVQVTKSLATYFRLALNQGKDLICLSDEINHVRQYLFIQKQRYGDKLEYEINENVAFDNLVLPKLVLQPLVENALYHGIKEKEGQGHIKLSVQKQDSGLVIRIEDDGVGFQDAGDSSQSQLKRGGVGLQNVDQRLKLHFGANYHMKIDSRPQKGTKVEIYINRIETS
protein production: failed

MKTASYAQSFSRAAKEYDAYAYLQQTVARELASWIEGMECESILDLGCGTGALWRALRFKPRFFTGVDLSMEMLDLHPQDPAIRLIQSDFNHPSLYEHSYDLIAASSSLQWSRDLAQSFDLIAKSAQNVAFAIFTSESLWEIHDYVDSHSPIPSKERIESLLKERFAGEFELKRYPLSFPSRVAMLSYLKGSGISGGRRLGFAQSK
protein production: failed

PVGAVMTPRPEVDMIDLSDPPDQIRATFASSPHSRLPATDGDRDDPIGIIQSKDVLEVYLRGETPDFRALVRDAPVIPASADARDALIMLRNASVHMGLVYDEFGGFEGVVSTADILESIVGAFSSEDG
protein production: failed

MPTKKADIYTLAKFGDLGAFKESFKIENINDKSESGSGLLHYAISGLKFDIAMFLIENGIDVNITNEVGQTALHYICNYPNIDVAKCILKHGGDINIRDKYYNNALWTAVFNCKGRYYDMVELFMEYSPDVETKNNAGRSPLDFAIQVGNEKLIKMLRKKE
protein production: failed

MPRSTWFKALLLLVALWAPLSQAETGWQPIQETIRKSDKDNRQYQAIRLDNGMVVLLVSDPQAVKSLSALVVPVGSLEDPEAYQGLAHYLEHMSLMGSKKYPQADSLAEYLKMHGGSHNASXAPYRTAFYLEVENDALPGAVDRLADAIAEPLLDKKYAERERNAVNAELTMARTRDGMRMAQVSAETINPAHPGSKFSGGNLETLSDKPGNPVQQALKDFHEKYYSANLMKAVIYSNKPLPELAKMAADTFGRVPNKESKKPEITVPVVTDAQKGIIIHYVPALPRKVLRVEFRIDNNSAKFRSKTDELITYLIGNRSPGTLSDWLQKQGLVEGISANSDPIVNGNSGVLAISASLTDKGLANRDQVVAAIFSYLNLLREKGIDKQYFDELANVLDIDFRYPSITRDMDYVEWLADTMIRVPVEHTLDAVNIADRYDAKAVKERLAMMTPQNARIWYISPKEPHNKTAYFVDAPYQVDKISEQTFADWQQKAANIALSLPELNPYIPDDFSLIKSEKKYDHPELIVDESNLRVVYAPSRYFSSEPKADVSLILRNPKAMDSARNQVMFALNDYLAGLALDQLSNQASVGGISFSTNANNGLMVNANGYTQRLPQLFQALLEGYFSYTATEDQLEQAKSWYNQMMDSAEKGKAFEQAIMPAQMLSQVPYFSRDERRKILPSITLKEVLAYRDALKSGARPEFMVIGNMTEAQATTLARDVQKQLGADGSEWCRNKDVVVDKKQSVIFEKAGNSTDSALAAVFVPTGYDEYTSSAYSSLLGQIVQPWFYNQLRTEEQLGYAVFAFPMSVGRQWGMGFLLQSNDKQPSFLWERYKAFFPTAEAKLRAMKPDEFAQIQQAVITQMLQAPQTLGEEALKLSKDFDRGNMRFDSRDKIVAQIKLLTPQKLADFFHQAVVEPQGMAILSQISGSQNGKAEYVHPEGWKVWENVSALQQTMPLMSEKNE
protein production: failed

MANWRGAGDSLSTGTGGSEAPPRKSPARLHQWRKLRVSHDDRTCPYQRCRHHLLRRIADARRRYRLLCRRSEHEHSRRVDRSFAEARHGRRRPGRCRSSHPQGCGHRQRDPHKIMSAAPAAPALDALGPDTPAHTVDAFHRGRFWLVQPKHGGHRAGMDAMMLAASVPSVFGGRLADFGAGAGAAGLAVLSRCPAARAVLVERAPEMAAFASATLAHPGNAHLSDRASVLVADVTVSGQARVAAGLADNDFDYVIMNPPFNAARDRATPDRLRKEAHVMEDGLFESWIRSAAAVVRPRGGLAVIARPEQLGAILDAMSGRFGDAEMLAVHPRPDAAAIRIIVRAALGARGKLAIRPPLMLHAQAGNGPDERSEMITNGLASLFGD
protein production: failed

MRKNKLSFKEKAGAEQEECLCFCEGEASREAMFQAPIELPEGFVVDPAEAVANVTWNADSLSCVSDRCLIQTGPEPDEVGVQFAVRLQGTVTLLVSVSPVRNQYGQGDGAVSVIHNAEIDQVVYYSDESDDCPDISDITIENLVVVPPFYGSPLSVTGTIVLVPEPEPVYAFTANPNDQSVSVIDTNTDTVVTTIALPYNPAGIEITPDKSAVFVLHPNNNVISVIDYDTLTVTATILLDQPPRLIRFIPNHEFAYVFTGTAVYVIGIDTLTVDRSIPVEGYDVAIDPNGLFAYVLNFGIVQKVDLTTGEVTGTIERELIVSTIETNWPERYAYVLEQEFFFNYLTVIDLNTFTISSTQELEYEGEYRMFTSGAEVYLYDGFTGNLYSVSPNGAGVIGNVPQSATDYAFTPNGDFLYATRFIEQSIIVYNTDDYSEETVISLGVSPGAITILEHHHHHH
protein production: not failed

MKIIKRAIISLIILSLLISITMSNASASEELYYSVEYKNTATFNKLVKKKSLNVVYNIPELHVAQIKMTKMHANALANYKNDIKYINATCSTCITSEKTIDRTSNESLFSRQWDMNKITNNGASYDDLPKHANTKIAIIDTGVMKNHDDLKNNFSTDSKNLVPLNGFRGTEPEETGDVHDVNDRKGHGTMVSGQTSANGKLIGVAPNNKFTMYRVFGSKKTELLWVSKAIVQAANDGNQVINISVGSYIILDKNDHQTFRKDEKVEYDALQKAINYAKKKKSIVVAAAGNDGIDVNDKQKLKLQREYQGNGEVKDVPASMDNVVTVGSTDQKSNLSEFSNFGMNYTDIAAPGGSFAYLNQFGVDKWMNEGYMHKENILTTANNGRYIYQAGTSLATPKVSGALALIIDKYHLEKHPDKAIELLYQHGTSKNNKPFSRYGHGELDVYKALNVANQKAS
protein production: not failed

MSAPLPLCVIGAGCVGMRHVEVARRSPQIRLTAVVEPVETRRRALAESGLVAVATLEEVPRETRAAIVATPTPDHLATGLAALSRGWAVLVEKPTAGTMDDARVLLGAADRAGLPLYVGHHRRCHPFSRAAREALGGIGDLVGLQGLWSLRKHDSYYAEDWRRQAGAGPLMTNLSHEIDLLRFLVGDMVEVSALTSSARRGLVVPDTAALAFRFADGALGSFLISDAGASPWSFEAACAENPAIAVSGQDYIRITGTAGALEFPSLTRWGRSAPGEIEWSKPLARAAGAGFARVDPLLEQINRFAAVLEGAQDDVLCTGTDGNAALEMTLAAALSGKLGRPVRAHEVPGDYSGI
protein production: failed

MIDTHIHSDTRGLEDLELMAMCLDGVITLAHDPFEMKNIKVWEAHVEKLLINELERAKKVGLNLFICVGMHPRAIPPEIDEALDKIKSYINYNSRVVGIGEIGLEKATKEEKEVFIKQLLLAEELNMPAVVHTPRRNKEEVTKIILDEISTLNLKNRDIVIEHCNKETTKWVLDEEFYVGLTIQPGKLTPLEAVEIVKEYKDFADKILLNSDCSSNASDVLAVPRTVLKMKINGIEKDVIYKVAHKNAVNLFGLDI
protein production: failed

MSPIVTAILVASNLGLIFLLMTVPLGLRTVRVSRVIAMDRGRLWQALWPLGSDAGWSGEILSAEPLDGEGVSRIMLSWEGRDGEPIERRARFDDVVEGSRFSMRVLEDTALDASFWKDYRETAELVSEGSGTRVTLGRTDRYRGVAFLVFRYFAMRRELSKLQRWAMTGQYRKGGWFEHPLSQVGFAVLSALILWPFFGLHLGGLALAAILTSVVALHELGHMAAFRLMGHRKARMIFIPLLGGIAIGGRPYNSRFEVAFVALMGAGFSAFLVPIAIAASAFAGSEGHKAAAALLAALAGCAALFNIANLVPVWKFDGGQVLRQICPGPVALALASFFLLSAFLAVGWEAGFSSGFLLATGAVFSILSLLTMGSGVKPRYELKPIRTVDRFAIAGALLAVFVIHGCGVLWASAQLL
protein production: failed

MPILTISGSPSAPSRSARLLGHVRAQLERAGESADHLDLRALPADALLGAQTAHPAIAEALARVAAAGVVILATPVYQAAYSGLLKTFLDLLPQSGLRDKVVLPIATGGSLAHTLAIDYALRPVLSSLAARVILPGIFAADAQIGAADDGFAVDPALQQRLDDGIERVHQAIALARHPAVAQVIVASRRTVRSAFQAHANAQATDAQQRMRCPA
protein production: failed

MLVEDSGHHLPESADIENALDLLLKAQLERAFGPELAEHFWAARQPRTLDERLAFIRKCWIGVFKDSPLSTFGLERLEQLERLCRSKRRGRELSAAEHHQFAEELARLWEQVQRLLPRAAPETSYASSASAGGVHSGDAHTPATLSDAESAHAAPEAMRIEAPATSARSASGCMARVSSDVAAAATNVSLVVLDGENIAWAHGQNAVFSPKGIAIAVDFFRKRGYRCVVFLPDYRRKRADLPTVSASDALVFVPAGEYDDTFALGYAVGHDAILVTNDLLQDHLDQFYPDEGEAREALRKWLGSHRCSFTFVGDEFLPNPHFFLP
protein production: failed

MMESGAGFVAMEERISPGSFFQYPLSGFRASPNRSPCPPSDRERYLTELLQERQKLGPFLQVMPNCCRLLNHEIRRVSSFPDLDRYEHGSPFRSLGQPTNGKLDLEGWSMMQAEVSHC
protein production: failed

MEIIIYIFVSIAIISLQAITPFVIRKSECFGVNVGERANRNAELTQLKKQYVGQVILWTVLVAIIGIALIQGFHWSENIQAGIFIISMFGQLIVSFIIYYRFHHTTLQWKREKIESGEISTNSIIMVDTSFHRRKMVISYTWFVVPLLIFIITLAITAVFYPFAPEEFPVHFDMNGVVTDTVQKSVRAALLLPMLQLGMIALFIFINFVIARSKQTVENENPADSLKRNMLFRQISSKAMLIMCVILVIDFLVMQAVILLSLSPEIMMITMSISIILILLGTVLLAVKVGQGGSRLKFANEPDNVNKPIRDDDAFWKAGVIYFNRNDPALFVEKRFGIGWTINTARPVAWLTFVFIIAAIVFISILF
protein production: failed

MEVSRALLFELGVLLAVLAVLGAVARRFALSPIPVYLLAGLSLGNGGILGVAAAGEFIATGAPIGVVLLLLALGLEFSATEFASSLRHHLPSAGVDIVLNATPGAVAGWLLGLDGVAILGLAGVTYISSSGVIARLLEDLRRLGNRETPAVLSVLVLEDFAMAAYLPLFAVLATDGSWLEAVVGMTVAIAALLGAFAASYRWGHHVGRLVTHPDSEQLLLRVLGITLIVAAVAESLHASAAVGAFLVGLTLTGETADRARMVLTPLRDLFATIFFLGIGLSVDPGKLVSMLPVALALAAVTAATKVATGMFAARREGVARRGQLRAGTALVARGEFSLIIIGLAGASIPGVAALATAYVFVMAIVGPILARYTGGGLPAAAVASN
protein production: failed

MSIKKLWVIPKDGYLLLLDYDSDEEEEQAHSEVKRPAFGKHENMPPHVEADEDIRDEQDSMLDKSGENVSFSEEWQRFARSVETPMENWNLLSGEQQVRNASELDLMEVQNPVTHDDGNANPEEVVGDTRKKINNKLCEQKFDMDIQKFNEEQEKSVNNYQKEQQALKLSECSQSPTMEAIEDMHEKSMEGLMNMETNNYDMLFDVDGEETL
protein production: failed

PPPAPIPDLKVFEREGVQLNLSFIRPPENPALLLITITATNFSEGDVTHFICQAAVPKSLQLQLQAPSGNTVPARGGLPITQLFRILNPNKAPLRLKLRLTYDHFHQSVQEIFEVNNLPVESWQ
protein production: not failed

GSKGSRIELGDVTPHNIKQLKRLNQVIFPVSYNDKFYKDVLEVGELAKLAYFNDIAVGAVCCRVDHSQNQKRLYIMTLGCLAPYRRLGIGTKMLNHVLNICEKDGTFDNIYLHVQISNESAIDFYRKFGFEIIETKKNYYKRIEPADAHVLQKNLKVPSGQNADVQKTDN
protein production: failed

MVRRCETQRGRWDNKVNILKDTDKFGFDLGFQLQESKKRFGPDLGFCIKRFAPPILQMSLEENENGPKPTWQIRSNRETSKAIRSAPPLTFSSFTGVSLGRKLPNNKNPESSKTRQEGFDTVEEGLKGDRGRTSVDRSEYDGG
protein production: failed
